Data reported in publication PMC5955432.

Molecular target: Skp1-FBW7 complex (UniProt Q969H0)
Assay: ITC; MicroCal VP-ITC, 30°C; cell: 15 μM purified Skp1-FBW7 complex in 50 mM phosphate buffer, pH 7.4; syringe: 321 μM FIRΔexon2; 10 μL injections, 20 s, 150 s delay

Chain of UniProt Q969H0 (Q969H0 whole entry, chain 1 of 2): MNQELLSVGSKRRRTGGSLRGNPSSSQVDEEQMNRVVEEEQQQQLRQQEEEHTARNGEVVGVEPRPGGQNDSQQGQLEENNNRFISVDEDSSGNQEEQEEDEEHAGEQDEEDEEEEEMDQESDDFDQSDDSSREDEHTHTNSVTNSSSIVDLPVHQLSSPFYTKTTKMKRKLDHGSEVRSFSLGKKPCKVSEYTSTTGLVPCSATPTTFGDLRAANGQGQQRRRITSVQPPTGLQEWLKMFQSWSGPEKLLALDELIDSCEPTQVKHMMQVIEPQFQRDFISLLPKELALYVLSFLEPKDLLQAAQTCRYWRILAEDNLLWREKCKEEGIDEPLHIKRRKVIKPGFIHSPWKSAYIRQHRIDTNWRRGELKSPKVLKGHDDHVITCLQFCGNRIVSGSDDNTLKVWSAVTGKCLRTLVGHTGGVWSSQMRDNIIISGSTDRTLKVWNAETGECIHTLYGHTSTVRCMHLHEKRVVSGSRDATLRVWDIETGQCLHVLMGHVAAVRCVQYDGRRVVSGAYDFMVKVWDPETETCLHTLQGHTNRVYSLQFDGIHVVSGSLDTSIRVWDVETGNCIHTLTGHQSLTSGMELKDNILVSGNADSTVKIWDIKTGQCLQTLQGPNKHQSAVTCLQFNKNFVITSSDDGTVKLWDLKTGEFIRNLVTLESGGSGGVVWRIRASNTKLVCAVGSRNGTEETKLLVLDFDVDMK
Chain of UniProt Q969H0 (P63208 whole entry, chain 2 of 2, further chain): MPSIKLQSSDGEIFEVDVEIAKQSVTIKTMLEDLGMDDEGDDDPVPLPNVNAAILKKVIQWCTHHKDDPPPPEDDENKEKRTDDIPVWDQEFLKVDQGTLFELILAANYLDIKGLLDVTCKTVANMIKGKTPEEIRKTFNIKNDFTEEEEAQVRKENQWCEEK

Ka: > 1e+08 M⁻¹
Substance: FIRΔexon2 (alternative splicing variant of far upstream element binding protein 1 (FUBP1) interacting repressor, FIR / PUF60, lacking exon 2) (natural protein)
